From patent publication US20240262894A1

Columns and labels:
[1] = target: F protein of RSV B-type clinical isolates (on virus) (respiratory syncytial virus B-type clinical isolates); assay: cell-based or functional assay
[2] = target: post-fusion F protein (FΔFP) of RSV A2 strain (respiratory syncytial virus A2 strain) (UniProt P03420); assay: SPR (Biacore), F protein immobilised on CM5 chip, Fab as analyte
[3] = target: pre-fusion F protein DS-Cav1 of RSV A2 strain (respiratory syncytial virus A2 strain); assay: as above

Substance | IC50 (ng/mL), neutralization of RSV B-type clinical isolates on Hep2 cells, flow cytometry [1] | Kd [2] | Kd [3]
Palivizumab (antibody) | 1410 ng/mL | – | –
Palivizumab Fab | – | 4.4 nM | 11.4 nM
